Molecular target: protocadherin-15 EC1+2 R113G, His-tagged (mouse), Q99PJ1
Test: thermal scanning (thermal stability shift assay with SYPRO orange); pcdh15 fixed at 0.1 mg/mL (~4 μM), cdh23 0.1 to 0.5 mg/mL (~4 to 20 μM; cdh23:pcdh15 1:1 to 5:1); SEC buffer (20 mM Tris-HCl pH 7.5, 150 mM KCl, 50 mM NaCl, 2 mM CaCl2); 10 to 95°C in 0.2°C steps, 5 s equilibration; read-out: shift of the Tm of pcdh15 (ΔTm)
Details: remark: other sources report otherwise

ΔTm of pcdh15 at cdh23:pcdh15 1:1: -0.6 °C | ΔTm of pcdh15 at cdh23:pcdh15 2:1: 0.2 °C | ΔTm of pcdh15 at cdh23:pcdh15 3:1: 1 °C | ΔTm of pcdh15 at cdh23:pcdh15 4:1: 1.3 °C | ΔTm of pcdh15 at cdh23:pcdh15 5:1: 1.5 °C
B1: cadherin-23 EC1+2, wild type, His-tagged, Q99PF4 24-228 (domain or fragment)
chain: QVNRLPFFTNHFFDTYLLISEDTPVGSSVTQLLARDMDNDPLVFGVSGEEASRFFAVEPDTGVVWLRQPLDRETKSEFTVEFSVSDHQGVITRKVNIQVGDVNDNAPTFHNQPYSVRIPENTPVGTPIFIVNATDPDLGAGGSVLYSFQPPSPFFAIDSARGIVTVIQELDYEVTQAYQLTVNATDQDKTRPLSTLANLAIIITD

From paper PMC5736220
